Data taken from patent publication US20240066137A1 (ONEGENE BIOTECHNOLOGY, published 2024).
Like-named read-outs stand apart in the source and are kept apart here. Ends that are not written are not given here.

Tests used:
Assay in all cases: cell-based or functional assay
GLP-1 acceptor [1] = biological target: T1, GLP-1 acceptor (UniProt P43220 24-463, limits assumed)
GCG acceptor = GCG acceptor (UniProt P47871 26-477, limits assumed)
GLP-1 acceptor [2] = biological target: T1, GLP-1 acceptor; remark: listed apart in the source
FGFR1/KLB acceptor = FGFR1/KLB acceptor (UniProt P11362 22-822; Q86Z14 1-1044, limits assumed)
Sequence of FGFR1/KLB acceptor (P11362 22-822 limits assumed, chain 1 of 2): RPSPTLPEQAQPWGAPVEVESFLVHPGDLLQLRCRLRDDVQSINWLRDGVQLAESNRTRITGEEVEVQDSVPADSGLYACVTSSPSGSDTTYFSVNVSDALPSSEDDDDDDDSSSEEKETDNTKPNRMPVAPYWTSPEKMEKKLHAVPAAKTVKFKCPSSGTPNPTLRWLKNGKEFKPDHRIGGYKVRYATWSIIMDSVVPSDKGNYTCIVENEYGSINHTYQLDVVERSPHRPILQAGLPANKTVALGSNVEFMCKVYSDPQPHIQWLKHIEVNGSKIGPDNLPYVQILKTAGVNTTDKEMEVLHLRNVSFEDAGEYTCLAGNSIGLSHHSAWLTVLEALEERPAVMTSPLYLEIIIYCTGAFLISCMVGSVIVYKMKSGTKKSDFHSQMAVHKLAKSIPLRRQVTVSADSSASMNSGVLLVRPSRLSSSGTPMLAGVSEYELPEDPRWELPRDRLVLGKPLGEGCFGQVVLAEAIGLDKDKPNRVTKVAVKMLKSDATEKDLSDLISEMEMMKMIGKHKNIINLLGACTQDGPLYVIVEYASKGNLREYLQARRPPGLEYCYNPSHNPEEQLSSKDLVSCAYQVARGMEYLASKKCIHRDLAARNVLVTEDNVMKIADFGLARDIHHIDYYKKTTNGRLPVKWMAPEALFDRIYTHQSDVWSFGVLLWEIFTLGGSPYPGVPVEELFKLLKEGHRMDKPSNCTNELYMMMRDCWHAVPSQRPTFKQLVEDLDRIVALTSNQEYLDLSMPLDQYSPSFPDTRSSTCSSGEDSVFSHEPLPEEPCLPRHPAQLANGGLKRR
Sequence of FGFR1/KLB acceptor (Q86Z14 whole entry, chain 2 of 2): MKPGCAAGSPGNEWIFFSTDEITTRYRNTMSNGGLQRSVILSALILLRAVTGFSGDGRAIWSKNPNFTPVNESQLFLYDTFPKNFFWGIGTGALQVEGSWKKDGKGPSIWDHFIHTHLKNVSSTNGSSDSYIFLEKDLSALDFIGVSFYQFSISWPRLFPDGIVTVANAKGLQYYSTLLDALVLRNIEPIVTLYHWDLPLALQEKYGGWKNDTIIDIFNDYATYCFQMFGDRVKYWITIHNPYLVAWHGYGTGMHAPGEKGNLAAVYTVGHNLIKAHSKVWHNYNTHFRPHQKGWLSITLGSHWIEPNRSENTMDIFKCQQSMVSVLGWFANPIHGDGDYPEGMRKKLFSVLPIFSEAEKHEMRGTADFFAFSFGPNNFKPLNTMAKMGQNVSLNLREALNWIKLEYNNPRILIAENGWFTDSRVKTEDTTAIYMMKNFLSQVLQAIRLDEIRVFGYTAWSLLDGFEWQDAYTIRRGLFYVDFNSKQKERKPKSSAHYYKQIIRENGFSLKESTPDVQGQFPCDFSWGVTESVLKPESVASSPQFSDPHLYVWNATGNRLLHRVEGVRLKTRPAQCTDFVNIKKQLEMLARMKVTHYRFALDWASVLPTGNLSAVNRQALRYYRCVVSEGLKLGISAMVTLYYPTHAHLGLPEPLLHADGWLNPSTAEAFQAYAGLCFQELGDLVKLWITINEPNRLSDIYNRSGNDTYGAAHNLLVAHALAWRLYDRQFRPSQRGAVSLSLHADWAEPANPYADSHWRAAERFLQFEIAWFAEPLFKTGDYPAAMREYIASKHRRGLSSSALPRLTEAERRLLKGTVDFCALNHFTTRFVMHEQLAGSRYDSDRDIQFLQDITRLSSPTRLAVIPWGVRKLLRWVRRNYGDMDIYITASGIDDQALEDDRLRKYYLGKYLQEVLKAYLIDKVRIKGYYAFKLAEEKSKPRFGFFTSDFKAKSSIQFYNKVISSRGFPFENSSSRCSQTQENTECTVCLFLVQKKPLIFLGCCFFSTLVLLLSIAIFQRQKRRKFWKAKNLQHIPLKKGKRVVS

GIP acceptor = biological target: T2, GIP acceptor (UniProt P48546 22-466, limits assumed)
T2 sequence (looked up): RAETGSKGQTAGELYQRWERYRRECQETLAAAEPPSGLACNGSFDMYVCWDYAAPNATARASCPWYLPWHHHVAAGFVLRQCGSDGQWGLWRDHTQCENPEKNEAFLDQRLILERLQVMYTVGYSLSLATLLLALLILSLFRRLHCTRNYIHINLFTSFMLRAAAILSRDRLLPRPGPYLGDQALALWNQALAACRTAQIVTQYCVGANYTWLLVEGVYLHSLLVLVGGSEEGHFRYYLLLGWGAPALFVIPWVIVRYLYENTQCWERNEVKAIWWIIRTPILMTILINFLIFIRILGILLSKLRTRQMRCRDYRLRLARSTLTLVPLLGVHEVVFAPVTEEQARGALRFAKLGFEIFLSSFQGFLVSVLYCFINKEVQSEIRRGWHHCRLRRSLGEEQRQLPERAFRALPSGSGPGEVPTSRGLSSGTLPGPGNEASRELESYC

Sequence of GCG acceptor (P47871 26-477 limits assumed): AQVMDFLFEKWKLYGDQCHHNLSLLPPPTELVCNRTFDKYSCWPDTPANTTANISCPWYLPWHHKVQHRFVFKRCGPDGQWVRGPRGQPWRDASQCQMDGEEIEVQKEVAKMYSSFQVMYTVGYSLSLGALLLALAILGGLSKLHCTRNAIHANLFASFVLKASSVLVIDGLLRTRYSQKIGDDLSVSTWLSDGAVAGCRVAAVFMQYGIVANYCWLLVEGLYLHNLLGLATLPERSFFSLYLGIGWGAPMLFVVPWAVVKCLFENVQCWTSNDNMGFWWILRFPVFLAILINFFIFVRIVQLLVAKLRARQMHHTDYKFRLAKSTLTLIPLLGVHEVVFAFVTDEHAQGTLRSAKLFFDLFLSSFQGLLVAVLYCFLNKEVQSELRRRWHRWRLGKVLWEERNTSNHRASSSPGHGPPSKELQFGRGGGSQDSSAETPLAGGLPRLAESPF

## HSQGTFTSDYSKYLDEQAAKEFIAWLMNT [GLP/GCG#15]
GLP-1 acceptor [1]
  EC50, cAMP accumulation assay; Transient cell line, n = 1: 16 pM
GCG acceptor
  EC50, cAMP accumulation assay; Transient cell line, n = 1: 424 pM

## HSEGTFTSDVSEYLEKQAAKEFIAWLVKGR [GLP#6]
GLP-1 acceptor [2]
  EC50, cAMP accumulation assay; Transient cell line, n = 2: 1.5 pM

## HSEGTFTSDVSSYLEEQAAKEFIAWLVKGGG [GLP#5]
GLP-1 acceptor [2]
  EC50, cAMP accumulation assay; Transient cell line, n = 1: 7.52 pM

## HGEGTFTSDVSSYLEEQAAKEFIAWLVKGGG (ends and bridges not checked) [GLP#9]
GLP-1 acceptor [2]
  EC50, cAMP accumulation assay; Stable cell line, n = 4: 2.08 pM
  EC50, cAMP accumulation assay; Transient cell line, n = 3: 0.71 pM

## HGEGTFTSDVSSYLEEQAAKEFIAWLVRGRG [GLP#8]
GLP-1 acceptor [2]
  EC50, cAMP accumulation assay; Transient cell line, n = 2: 1.95 pM

## HGEGTFTSDVSEYLEKQAAQEFIAWLVKGR [GLP#10]
GLP-1 acceptor [2]
  EC50, cAMP accumulation assay; Transient cell line, n = 2: 8.26 pM

## HSEGTFTSDVSSYLEGQAAQEFIAWLVNGR [GLP#1]
GLP-1 acceptor [2]
  EC50, cAMP accumulation assay; Transient cell line, n = 1: 159 pM

## HGQGTFTSDYSKYLDEQAAKEFIAWLMNT [GLP/GCG#3]
GLP-1 acceptor [1]
  EC50, cAMP accumulation assay; Transient cell line, n = 1: 13 pM
GCG acceptor
  EC50, cAMP accumulation assay; Transient cell line, n = 1: > 5000 pM

B1: FGF#5 (ligand)
chain: HPIPDSSPLLQFGGQVRQVYLYTDDAQQTEAHLEIREDGTVGGAADQSPESLLQLKALKPGVIQILGVKTSRFLCQRPDGALYGSLHFDPEACSFREDLKEDGYNVYQSEAHGLPLHLPGNKSPHRDPAPRGPARFLPLPGLPPALPEPPGILAPQPPDVGSSDPLSMVEGSQGRSPSYES
FGFR1/KLB acceptor
  EC50, FGFR1/KLB functional assay; n = 2: 22300 pM

B2: FGF#9 (ligand)
chain: HPIPDSSPLLQFGGQVRQVYLYTDDAQQTEAHLEIREDGTVGGAADQSPESLLQLKALKPGVIQILGVKTSRFLCQRPDGALYGSLHFDPEACSFRERLLEDGYNVYQSEAHGLPLHLPGNKSPHRDPAPRGPARFLPLPGLPPALPEPPGILAPQPPDVGSSDPLSMVEGSQGRSPSYES
FGFR1/KLB acceptor
  EC50, FGFR1/KLB functional assay; n = 2: 19100 pM

B3: FGF#1 (ligand)
chain: HPIPDSSPLLQFGGQVRQRYLYTDDAQQTEAHLEIREDGTVGGAADQSPESLLQLKALKPGVIQILGVKTSRFLCQRPDGALYGSLHFDPEACSFREEIRPDGYNVYQSEAHGLPLHLPGNKSPHRDPAPRGPARFLPLPGLPPALPEPPGILAPQPPDVGSSDPLSMVTGLEANRSPSYES
FGFR1/KLB acceptor
  EC50, FGFR1/KLB functional assay; n = 2: 21000 pM

## YGEGTFISDYSIAMDKIHQQDFVNWLLAQKGKKNDWKHNITQ [GIP#1]
GIP acceptor
  EC50, cAMP accumulation assay; Transient cell line, n = 3: 17.5 pM

## YGEGTFISDYSIAMDKIRQQDFVNWLLAQKGKKNDWKHNITQ [GIP#7]
GIP acceptor
  EC50, cAMP accumulation assay; Transient cell line, n = 1: 76.9 pM

## YSEGTFISDYSIAMDKIHQQDFVNWLLAQKGKKNDWKHNITQ [GIP#2]
GIP acceptor
  EC50, cAMP accumulation assay; Stable cell line, n = 2: 12 pM
  EC50, cAMP accumulation assay; Transient cell line, n = 3: 6.63 pM

## FSEGTFISDYSIAMDKIHQQDFVNWLLAQKGKKNDWKHNITQ [GIP#5]
GIP acceptor
  EC50, cAMP accumulation assay; Transient cell line, n = 1: 81.9 pM

B4: FGF#7 (ligand)
chain: HPIPDSSPLLQFGGQVRQVYLYTDDAQQTEAHLEIREDGTVGGAADQSPESLLQLKALKPGVIQILGVKTSRFLCQRPDGALYGSLHFDPEACSFREDLKEDGYNVYQSEAHGLPLHLPGNKSPHRDPAPRGPARFLPLPGLPPALPEPPGILAPQPPDVGSSDPLRLVEPSQLRSPSFE
FGFR1/KLB acceptor
  EC50, FGFR1/KLB functional assay; n = 2: 17700 pM

## HGEGTFTSDVSEYLEKQAAKEFIAWLVRGRG [GLP#7]
GLP-1 acceptor [2]
  EC50, cAMP accumulation assay; Transient cell line, n = 1: 23 pM

## HGEGTFTSDVSEYLEKQAAKEFIAWLVNGR [GLP#3]
GLP-1 acceptor [2]
  EC50, cAMP accumulation assay; Transient cell line, n = 2: 2.25 pM
